Article PMC2932838 (Biochemistry, 2010)
Where two headings read alike, the source gives them in different places.

T1: Human α2-antiplasmin, Asn-α2-AP form (human, UniProt P08697 40-491)
T1 sequence (looked up): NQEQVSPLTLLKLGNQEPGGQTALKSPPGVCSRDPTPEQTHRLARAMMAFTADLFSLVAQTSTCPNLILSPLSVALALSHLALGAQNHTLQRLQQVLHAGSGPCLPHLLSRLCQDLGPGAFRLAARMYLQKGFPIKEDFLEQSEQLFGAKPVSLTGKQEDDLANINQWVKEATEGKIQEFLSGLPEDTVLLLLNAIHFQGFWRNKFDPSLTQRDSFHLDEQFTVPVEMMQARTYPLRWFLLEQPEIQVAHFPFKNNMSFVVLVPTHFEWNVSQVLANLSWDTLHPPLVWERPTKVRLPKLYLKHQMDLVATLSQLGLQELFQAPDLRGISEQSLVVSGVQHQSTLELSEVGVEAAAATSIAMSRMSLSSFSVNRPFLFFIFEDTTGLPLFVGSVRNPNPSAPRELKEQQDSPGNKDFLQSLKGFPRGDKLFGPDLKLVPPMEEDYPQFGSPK

B1: Biotinylated human α2-antiplasmin (Asn-α2-AP form) (natural protein, UniProt P08697 40-491, looked up)
chain: T1 sequence (looked up)
modifications: biotin (EZ-Link Sulfo-NHS-Biotinylation Kit), sites not stated
B2: Human α2-antiplasmin, Asn-α2-AP form (natural protein)
chain: T1 sequence (looked up)
B3: Biotinylated human α2-antiplasmin (Asn-α2-AP form), P08697 40-491 (natural protein)
chain: T1 sequence (looked up)
modifications: here or on the partner: biotin (EZ-Link Sulfo-NHS-Biotinylation Kit), sites not stated
B4: Fibrin-derived D-D fragment (domain or fragment)
chain 1: VSEDLRSRIEVLKRKVIEKVQHIQLLQKNVRAQLVDMKRLEVDIDIKIRSCRGSCSRALAREVDLKDYEDQQKQLEQVIAKDLLPSR
chain 2: DNENVVNEYSSELEKHQLYIDETVNSNIPTNLRVLRSILENLRSKIQKLESDVSAQMEYCRTPCTVSCNIPVVSGKECEEIIRKGGETSEMYLIQPDSSVKPYRVYCDMNTENGGWTVIQNRQDGSVDFGRKWDPYKQGFGNVATNTDGKNYCGLPGEYWLGNDKISQLTRMGPTELLIEMEDWKGDKVKAHYGGFTVQNEANKYQISVNKYRGTAGNALMDGASQLMGENRTMTIHNGMFFSTYDRDNDGWLTSDPRKQCSKEDGGGWWYNRCHAANPNGRYYWGGQYTWDMAKHGTDDGVVWMNWKGSWYSMRKMSMKIRPFFPQQ
chain 3: KMLEEIMKYEASILTHDSSIRYLQEIYNSNNQKIVNLKEKVAQLEAQCQEPCKDTVQIHDITGKDCQDIANKGAKQSGLYFIKPLKANQQFLVYCEIDGSGNGWTVFQKRLDGSVDFKKNWIQYKEGFGHLSPTGTTEFWLGNEKIHLISTQSAIPYALRVELEDWNGRTSTADYAMFKVGPEADKYRLTYAYFAGGDAGDAFDGFDFGDDPSDKFFTSHNGMQFSTWDNDNDKFEGNCAEQDGSGWWMNKCHAGHLNGVYYQGGTYSKASTPNGYDNGIIWATWKTRWYSMKKTTMKIIPFNRLTIGEGQQHHLGGAK
modifications: covalent γ-γ cross-linking between the D regions
B5: Fibrin-derived D-D:E complex (complex)
chain 1: B4 chain 1
chain 2: B4 chain 2
chain 3: B4 chain 3
chain 4: GPRVVERHQSACKDSDWPFCSDEDWNYKCPSGCRMKGLIDEVNQDFTNRINKLKNSLFEYQK
chain 5: GHRPLDKKREEAPSLRPAPPPISGGGYRARPAKAAATQKKVERKAPDAGGCLHADPDLGVLCPTGCQLQEALLQQERPIRNSVDELNNNVEAVSQTSSSSFQYMYLLK
chain 6: YVATRDNCCILDERFGSYCPTTCGIADFLSTYQTKVDKDLQSLEDILHQVENKTSEVKQLIK
modifications: covalent γ-γ cross-linking between the D regions

Legend:
[1] = target: Fibrin made from surface-adsorbed or chip-immobilized human fibrinogen by thrombin (most probably monomeric) (human) (UniProt P02679); test: ELISA
[2] = target: Recombinant Aα392–610 fragment (human fibrinogen αC-domain) (human); test: ELISA
[3] = target: Recombinant Aα504–610 fragment (C-terminal sub-domain of the αC-domain) (human); test: ELISA
[4] = target: T2, Plasminogen-depleted human fibrinogen (human, UniProt P02671-2 36-644; P02675 45-491; P02679 27-453); test: ELISA
[5] = target: Fibrin made from surface-adsorbed or chip-immobilized human fibrinogen by thrombin (most probably monomeric) (human) (UniProt P02679); test: ELISA; remark: listed apart in the source
[6] = target: Recombinant Aα392–610 fragment (human fibrinogen αC-domain) (human); test: ELISA; remark: listed apart in the source
[7] = target: Fibrin made from surface-adsorbed or chip-immobilized human fibrinogen by thrombin (most probably monomeric) (human) (UniProt P02679); test: ELISA; remark: listed apart in the source
[8] = target: Recombinant Aα392–610 fragment (human fibrinogen αC-domain) (human); test: ELISA; remark: listed apart in the source
[9] = target: Fibrin made from surface-adsorbed or chip-immobilized human fibrinogen by thrombin (most probably monomeric) (human) (UniProt P02679); test: ELISA; remark: listed apart in the source
[10] = target: Recombinant Aα221–610 fragment (human fibrinogen αC region) (human); test: ELISA
[11] = target: Recombinant Aα504–610 fragment (C-terminal sub-domain of the αC-domain) (human); test: ELISA; remark: listed apart in the source
[12] = target: T2, Plasminogen-depleted human fibrinogen; test: ELISA; remark: listed apart in the source
[13] = target: Polymeric fibrin (cross-linked fibrin oligomers/polymers prepared on the sensor chip) (human) (UniProt P02679); test: SPR
[14] = target: Polymeric fibrin (cross-linked fibrin oligomers/polymers prepared on the sensor chip) (human) (UniProt P02679); test: SPR; remark: listed apart in the source
[15] = target: Fibrinogen D1 fragment (human); test: ELISA
[16] = target: Fibrinogen D1 fragment (human); test: ELISA; remark: listed apart in the source
[17] = target: B1; test: ELISA
[18] = target: B1; test: ELISA; remark: listed apart in the source
[19] = target: B1; test: ELISA; remark: listed apart in the source
[20] = target: B1; test: ELISA; remark: listed apart in the source
[21] = target: T1, Human α2-antiplasmin, Asn-α2-AP form; test: SPR

Binder: B1
Kd [1]: 0.101 µM
Kd [2]: 0.141 µM
Kd [3]: 0.13 µM
Kd [4]: 0.102 µM
Kd [5]: 0.109 µM
Kd [6]: 0.157 µM
Kd [7]: 0.025 µM
Kd [8]: 0.111 µM
Kd [9]: 0.102 µM
Kd [10]: 0.131 µM
Kd [11]: 0.123 µM
Kd [12]: 0.179 µM

Binder: B2
Kd [13]: 0.068 µM
Kd [14]: 0.045 µM

Binder: B3
Kd [15]: 0.165 µM
Kd [16]: 0.197 µM

Binder: B4
Kd [17]: 0.098 µM
Kd [18]: 0.105 µM
Kd [19]: 0.0055 µM
Kd [20]: 0.094 µM

Binder: B5
Kd [21]: 1.4 ± 0.4 µM
